Results on 2 molecules are retold here after paper PMC12219854 (Nature Communications, 2025).

The target in assay [1] is GST-Bahcc1^TTD (murine Bahcc1 amino acids 1904-2044) (mouse, UniProt Q3UHR0 1904-2044). Description: pull-down.
Assay [2] addresses GST-53BP1^TTD (amino acids 1235-1709) (UniProt Q12888 1235-1709). Put plainly: pull-down.

Sequence of GST-53BP1^TTD (amino acids 1235-1709) (Q12888 1235-1709): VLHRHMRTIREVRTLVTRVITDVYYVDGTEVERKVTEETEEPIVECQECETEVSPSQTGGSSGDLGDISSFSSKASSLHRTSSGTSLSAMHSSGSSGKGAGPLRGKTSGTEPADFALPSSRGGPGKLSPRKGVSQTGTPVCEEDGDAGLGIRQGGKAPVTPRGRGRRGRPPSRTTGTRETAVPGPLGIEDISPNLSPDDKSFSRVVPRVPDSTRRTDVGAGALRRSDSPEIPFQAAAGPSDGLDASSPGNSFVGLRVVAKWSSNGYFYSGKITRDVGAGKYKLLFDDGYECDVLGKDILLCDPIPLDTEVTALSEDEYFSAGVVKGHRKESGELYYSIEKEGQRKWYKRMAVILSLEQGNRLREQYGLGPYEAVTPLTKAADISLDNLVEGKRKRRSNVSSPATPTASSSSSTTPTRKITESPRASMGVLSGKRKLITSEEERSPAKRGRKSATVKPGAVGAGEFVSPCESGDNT
Sequence of GST-Bahcc1^TTD (murine Bahcc1 amino acids 1904-2044) (Q3UHR0 1904-2044): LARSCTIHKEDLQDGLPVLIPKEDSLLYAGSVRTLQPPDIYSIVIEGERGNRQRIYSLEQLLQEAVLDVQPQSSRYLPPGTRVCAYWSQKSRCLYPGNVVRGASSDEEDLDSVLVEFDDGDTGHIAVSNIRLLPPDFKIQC

With GKGGAKRHRKVLRDNIQ (peptide, UniProt P62805 12-28, looked up, monomethyl-lysine at K20; biotin (position not given)) [biotinylated H4 peptide, amino acids 11 to 27, H4K20me1], in assay [1], the binding result was “binds”. Regarding GKGGAKRHRKVLRDNIQ (peptide, UniProt P62805 12-28, looked up, dimethyl-lysine at K20; biotin (position not given)) [biotinylated H4 peptide, amino acids 11 to 27, H4K20me2], in assay [2], the binding result is given as “binds”.
